For the experiment, the target named is Envy. Description: SEC; gel filtration on a Superdex 200 column; 100 μL of 10 μM purified protein loaded, flow rate 0.5 ml/min, elution monitored by absorbance at 280 nm; self-association (monomer or dimer). (In general: Size exclusion chromatography separates by hydrodynamic size, large species first.)

Consider Envy, for which the stoichiometry N was 2.

A word on the stoichiometry N: it is a count of units in the complex or per binding partner.

The record behind these values is article PMC4754705.
